This passage reports Kd results from publication doi:10.1101/2021.04.14.439859.

Broadly, the Kd is the equilibrium constant for the complex coming apart. Low readings indicate higher affinity, high ones lower affinity.

Holding throughout (test): fluorescence polarisation
(Polarisation of emitted light reports the rotation of a fluorescent probe.)

One assay deals with TLH3 nucleosome (human) (UniProt P04908).
Assay [1] concerns the target H2A-H2B (Alexa-488 H2B) (human) (UniProt P04908).
Assay [2] addresses H3-H4 (Alexa-488 H4) (human) (UniProt P68431).
Another assay addresses TLH4 nucleosome (human) (UniProt P04908).

With “SMARCAD1 (from UniProt Q9H4L7 1-1026) (enzyme)”, the Kd with TLH3 nucleosome (human) is 330 nM; in assay [1], 10 nM; in assay [2] it was 1.2 nM; with TLH4 nucleosome (human) it was 110 nM.
